Reference: paper PMC3866644 (RNA, 2014)

T1: His6 fusion Prp40, full-length (yeast, UniProt P33203 1-583)
T1 sequence: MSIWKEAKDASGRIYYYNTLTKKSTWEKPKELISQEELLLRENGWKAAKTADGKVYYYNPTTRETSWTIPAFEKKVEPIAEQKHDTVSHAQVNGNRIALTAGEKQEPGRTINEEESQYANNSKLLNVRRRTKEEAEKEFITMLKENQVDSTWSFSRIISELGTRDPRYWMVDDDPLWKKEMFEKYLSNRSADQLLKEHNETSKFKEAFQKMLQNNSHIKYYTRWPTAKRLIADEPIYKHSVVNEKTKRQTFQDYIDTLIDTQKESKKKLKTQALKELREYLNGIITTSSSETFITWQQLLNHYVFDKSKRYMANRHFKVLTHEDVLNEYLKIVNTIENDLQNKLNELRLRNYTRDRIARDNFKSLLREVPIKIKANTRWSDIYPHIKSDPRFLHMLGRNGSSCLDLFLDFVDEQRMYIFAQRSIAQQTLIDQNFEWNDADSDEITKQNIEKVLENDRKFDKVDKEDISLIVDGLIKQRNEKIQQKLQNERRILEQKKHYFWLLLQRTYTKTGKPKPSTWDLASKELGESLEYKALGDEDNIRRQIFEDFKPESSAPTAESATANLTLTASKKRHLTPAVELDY

T2: His6 fusion Prp39, full-length (yeast, UniProt P39682 1-629)
T2 sequence: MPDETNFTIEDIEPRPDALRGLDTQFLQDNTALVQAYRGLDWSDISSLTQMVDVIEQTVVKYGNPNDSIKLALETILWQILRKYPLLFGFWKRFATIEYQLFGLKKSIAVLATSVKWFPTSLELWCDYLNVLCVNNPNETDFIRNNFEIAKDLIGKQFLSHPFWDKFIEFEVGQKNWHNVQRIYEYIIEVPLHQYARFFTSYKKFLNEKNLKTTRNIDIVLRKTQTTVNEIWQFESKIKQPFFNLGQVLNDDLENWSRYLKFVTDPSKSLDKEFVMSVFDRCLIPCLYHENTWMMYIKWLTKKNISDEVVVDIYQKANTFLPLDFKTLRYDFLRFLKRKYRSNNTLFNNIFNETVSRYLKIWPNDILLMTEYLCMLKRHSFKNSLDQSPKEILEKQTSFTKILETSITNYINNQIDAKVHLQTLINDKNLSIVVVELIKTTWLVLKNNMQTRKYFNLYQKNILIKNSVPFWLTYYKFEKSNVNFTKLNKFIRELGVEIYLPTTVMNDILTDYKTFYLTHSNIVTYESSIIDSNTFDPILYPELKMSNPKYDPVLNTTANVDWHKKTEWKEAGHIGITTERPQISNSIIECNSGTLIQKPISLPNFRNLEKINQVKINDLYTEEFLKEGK

T3: His6 fusion Prp28 (yeast, UniProt P23394 1-588)
T3 sequence: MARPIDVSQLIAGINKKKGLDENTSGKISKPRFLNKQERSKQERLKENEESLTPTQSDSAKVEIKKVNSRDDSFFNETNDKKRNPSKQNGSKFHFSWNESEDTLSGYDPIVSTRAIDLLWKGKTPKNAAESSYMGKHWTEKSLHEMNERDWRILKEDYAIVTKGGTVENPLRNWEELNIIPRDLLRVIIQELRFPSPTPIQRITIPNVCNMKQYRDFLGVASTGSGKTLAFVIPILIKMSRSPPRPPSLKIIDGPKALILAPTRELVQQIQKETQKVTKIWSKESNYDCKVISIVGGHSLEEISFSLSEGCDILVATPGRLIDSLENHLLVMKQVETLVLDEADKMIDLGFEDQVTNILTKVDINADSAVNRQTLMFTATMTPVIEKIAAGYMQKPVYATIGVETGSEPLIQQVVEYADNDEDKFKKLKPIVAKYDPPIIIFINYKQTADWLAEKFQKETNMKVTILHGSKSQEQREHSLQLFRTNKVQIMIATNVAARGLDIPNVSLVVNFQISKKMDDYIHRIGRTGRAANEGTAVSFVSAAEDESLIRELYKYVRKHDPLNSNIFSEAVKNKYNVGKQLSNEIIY


Legend:
Assay in all cases: pull-down
[1] = target: T1, His6 fusion Prp40, full-length
[2] = target: T2, His6 fusion Prp39, full-length
His6 fusion Prp28 = target: T3, His6 fusion Prp28

| Binder | binding result [1] | binding result [2] | binding result (His6 fusion Prp28) |
| --- | --- | --- | --- |
| GST-fusion Prp8-NTD(P263L/W279G) (domain or fragment) MSGLPPPPPGFEEDSDLALPPPPPPPPGYEIEELDNPMVPSSVNEDTFLPPPPPPPSNFEINAEEIVDFTLPPPPPPPGLDELETKAEKKVELHGKRKLDIGKDTFVTRKSRKRAKKMTKKAKRSNLYTPKAEMPPEHLRKIINTHSDMASKMYNTDKKAFLGALKYLPHAILKLLENMPHPWEQAKEVKVLYHTSGAITFVNETPRVIEPVYTAQWSATWIAMRREKRDRTHFKRMRFPPFDDDEPPLSYEQHIENIEPLDLINLPLDSQDDEYVKDGLYDSRPLEEDSKKVNGTSYKKWSFDLPEMSNLYRLSTPLRDEVTDKNYYYL | binds | binds |  |
| GST-fusion Prp8-NTD(R226G) (domain or fragment) MSGLPPPPPGFEEDSDLALPPPPPPPPGYEIEELDNPMVPSSVNEDTFLPPPPPPPSNFEINAEEIVDFTLPPPPPPPGLDELETKAEKKVELHGKRKLDIGKDTFVTRKSRKRAKKMTKKAKRSNLYTPKAEMPPEHLRKIINTHSDMASKMYNTDKKAFLGALKYLPHAILKLLENMPHPWEQAKEVKVLYHTSGAITFVNETPRVIEPVYTAQWSATWIAMRGEKRDRTHFKRMRFPPFDDDEPPLSYEQHIENIEPLDPINLPLDSQDDEYVKDWLYDSRPLEEDSKKVNGTSYKKWSFDLPEMSNLYRLSTPLRDEVTDKNYYYL | binds | binds |  |

Now from value to binder:

| binding result [1] | binding result [2] | binding result (His6 fusion Prp28) | Binder |
| --- | --- | --- | --- |
| binds | binds |  | GST-fusion Prp8-NTD(D273G) (domain or fragment) MSGLPPPPPGFEEDSDLALPPPPPPPPGYEIEELDNPMVPSSVNEDTFLPPPPPPPSNFEINAEEIVDFTLPPPPPPPGLDELETKAEKKVELHGKRKLDIGKDTFVTRKSRKRAKKMTKKAKRSNLYTPKAEMPPEHLRKIINTHSDMASKMYNTDKKAFLGALKYLPHAILKLLENMPHPWEQAKEVKVLYHTSGAITFVNETPRVIEPVYTAQWSATWIAMRREKRDRTHFKRMRFPPFDDDEPPLSYEQHIENIEPLDPINLPLDSQDGEYVKDWLYDSRPLEEDSKKVNGTSYKKWSFDLPEMSNLYRLSTPLRDEVTDKNYYYL |
| binds | binds | binds | GST-fusion Prp8-NTD (Prp8 residues 1-330), wild-type sequence (domain or fragment) not shown |
